Measurements reported in US6979673B1, “Method and compositions for modulating somatolactogenic functions” (Trustees of the University of Pennsylvania, priority 1999, dated 2005).

B1: Myc-tagged PRL: recombinant myc-tagged human PRL expressed and secreted by Drosophila S2 cells (protein)
chain: LPICPGGAARCQVTLRDLFDRAVVLSHYIHNLSSEMFSEFDKRYTHGRGFITKAINSCHTSSLATPEDKEQAQQMNQKDFLSLIVSILRSWNEPLYHLVTEVRGMQEAPEAILSKAVEIEEQTKRLLEGMELIVSQVHPETKENEIYPVWSGLPSLQMADEESRLSAYYNLLHCLRRDSHKIDNYLKLLKCRIIHNNNC
modifications: left off: small tags and cut ends
notes: recombinant myc-tagged human PRL expressed and secreted by Drosophila S2 cells
B2: PRL: somatolactogenic hormone prolactin; human pituitary isolated or recombinant human PRL (protein)
chain: LPICPGGAARCQVTLRDLFDRAVVLSHYIHNLSSEMFSEFDKRYTHGRGFITKAINSCHTSSLATPEDKEQAQQMNQKDFLSLIVSILRSWNEPLYHLVTEVRGMQEAPEAILSKAVEIEEQTKRLLEGMELIVSQVHPETKENEIYPVWSGLPSLQMADEESRLSAYYNLLHCLRRDSHKIDNYLKLLKCRIIHNNNC
modifications: left off: small tags and cut ends

System: Nb2 cells
Test: PRL-driven proliferation of Nb2 cells (3H-thymidine)
Assay type: cell-based, rat
Method: The effect of exogenous CypB on PRL-driven proliferation was examined with the rat Nb2 T-cell and the human T47D breast cancer line. […] This dose-dependent biphasic effect was most prominent at physiologic concentrations ([…]) of CypB and PRL (50 pM) found in human serum. […] To determine the effect of CypB on cellular growth driven by the larger family of cytokines, to which PRL belongs, proliferation driven by interleukin-2 (IL-2), IL-3 and GH was examined.
Nb2-cells (5×10^4; PRL-dependent, rat T-lymphoma) were plated in each well of 96 well plates in a defined DMEM-serum free medium (0.1 mM 2-mercaptoethanol, 1% penicillin/streptomycin, and 1% ITS+ (Calbiochem)). Cells were rested for 24 hours at 37° C. in this defined medium in the absence of PRL before the addition of 5–500 pM PRL (either as human pituitary isolated PRL, National Hormone and Pituitary Program, NIDDK; recombinant human PRL from E. coli, Genzyme; or recombinant human PRL from Drosophila S2 cells) alone or premixed with 1–2000 fold excess of purified CypB. Parallel studies were performed using human pituitary-derived GH (National Hormone and Pituitary Program, NIDDK). Cultures were incubated for 48 hours at 37° C. and proliferation was evaluated by the addition of 0.5 μCi of ^3H-thymidine for four hours followed by harvesting and scintillography. […]

| Molecule | bioactivity in Nb2 bioassays (protein expressed in Drosophila S2 cells) | PRL concentration at which Nb2 growth curves plateau (PRL alone, sigmoid shaped growth curves) |
| --- | --- | --- |
| B1 | functionally bioactive | – |
| B2 | – | approximately 2 ng PRL/ml |
